# According to US20200054723A1 (ALLAKOS, published 2020):
# Numbering of substitutions follows the chain as printed. Several values for one entry are separate records, joined by “and”; a condition that tells them apart may be missing. Identical values can stand only once.
# B1: HCKB (antibody, human IgG1, V domains shown)
# VH: EVQLVESGGGLVQPGGSLRLSCAVSGFSLTIYGAHWVRQAPGKGLEWVSVIWAGGSTNYNSALMSRFTISKDNSKNTVYLQMNSLRAEDTAVYYCARDGSSPYYYSMEYWGQGTTVTVSS
# VL: EIILTQSPATLSLSPGERATLSCSATSSVSYMHWFQQKPGQAPRLWIYSTSNLASGVPARFSGSGSGTDYTLTISSLEPEDFAVYYCQQRSSYPFTFGPGTKLDIK
# notes: human IgG1/kappa
# B2: HDKG (antibody, human IgG1, V domains shown)
# VH: B1 VH with V24A, V48L
# VL: B1 VL with I3V, F35Y, W46L, V57I, Y70F
# notes: human IgG1/kappa
# B3: HDKFmut (antibody, human IgG1, V domains shown)
# VH: B1 VH with V24A, V48L
# VL: B1 VL with I3V, W46L, V57I, F95Y
# notes: human IgG1/kappa
# B4: HCKF (antibody, human IgG1, V domains shown)
# VH: B1 VH
# VL: B1 VL with I3V, W46L, V57I
# notes: human IgG1/kappa
# B5: HFKG (antibody, human IgG1, V domains shown)
# VH: B1 VH with V24A, F67L
# VL: B1 VL with I3V, F35Y, W46L, V57I, Y70F
# notes: human IgG1/kappa
# B6: HDKE (antibody, human IgG1, V domains shown)
# VH: B1 VH with V24A, V48L
# VL: B1 VL with I3V, W46L, Y70F
# notes: human IgG1/kappa
# B7: RHE E-DKC (antibody, human IgG1, V domains shown)
# VH: B1 VH with V24A, S49G, E108D
# VL: B1 VL with W46L, V57I, Y70F
# notes: human IgG1/kappa
# B8: RHE E-DKFmut (antibody, human IgG1, V domains shown)
# VH: B1 VH with V24A, S49G, E108D
# VL: B1 VL with I3V, W46L, V57I, F95Y
# notes: human IgG1/kappa
# B9: HEKC (antibody, human IgG1, V domains shown)
# VH: B1 VH with V24A, S49G
# VL: B1 VL with W46L, V57I, Y70F
# notes: human IgG1/kappa
# B10: HEKD (antibody, human IgG1, V domains shown)
# VH: B1 VH with V24A, S49G
# VL: B1 VL with I3V, V57I, Y70F
# notes: human IgG1/kappa
# B11: HGKC (antibody, human IgG1, V domains shown)
# VH: B1 VH with V24A, T68S
# VL: B1 VL with W46L, V57I, Y70F
# notes: human IgG1/kappa
# B12: RHE S-GKA (antibody, human IgG1, V domains shown)
# VH: B1 VH with V24A, S49G, S106G
# VL: B1 VL with I3V, W46L, V57I, Y70F
# notes: human IgG1/kappa
# B13: HGKD (antibody, human IgG1, V domains shown)
# VH: B1 VH with V24A, T68S
# VL: B1 VL with I3V, V57I, Y70F
# notes: human IgG1/kappa
# B14: RHE E-DKE (antibody, human IgG1, V domains shown)
# VH: B1 VH with V24A, S49G, E108D
# VL: B1 VL with I3V, W46L, Y70F
# notes: human IgG1/kappa
# B15: RHE E-DKD (antibody, human IgG1, V domains shown)
# VH: B1 VH with V24A, S49G, E108D
# VL: B1 VL with I3V, V57I, Y70F
# notes: human IgG1/kappa
# B16: HGKA (antibody, human IgG1, V domains shown)
# VH: B1 VH with V24A, T68S
# VL: B1 VL with I3V, W46L, V57I, Y70F
# notes: human IgG1/kappa
# B17: RHE E-DKB (antibody, human IgG1, V domains shown)
# VH: B1 VH with V24A, S49G, E108D
# VL: B1 VL
# notes: human IgG1/kappa
# B18: HFKFmut (antibody, human IgG1, V domains shown)
# VH: B1 VH with V24A, F67L
# VL: B1 VL with I3V, W46L, V57I, F95Y
# notes: human IgG1/kappa
# B19: HGKB (antibody, human IgG1, V domains shown)
# VH: B1 VH with V24A, T68S
# VL: B1 VL
# notes: human IgG1/kappa
# B20: HCKE (antibody, human IgG1, V domains shown)
# VH: B1 VH
# VL: B1 VL with I3V, W46L, Y70F
# notes: human IgG1/kappa
# B21: HDKB (antibody, human IgG1, V domains shown)
# VH: B1 VH with V24A, V48L
# VL: B1 VL
# notes: human IgG1/kappa
# B22: HFKA (antibody, human IgG1, V domains shown)
# VH: B1 VH with V24A, F67L
# VL: B1 VL with I3V, W46L, V57I, Y70F
# notes: human IgG1/kappa
# B23: HGKE (antibody, human IgG1, V domains shown)
# VH: B1 VH with V24A, T68S
# VL: B1 VL with I3V, W46L, Y70F
# notes: human IgG1/kappa
# B24: HDKC (antibody, human IgG1, V domains shown)
# VH: B1 VH with V24A, V48L
# VL: B1 VL with W46L, V57I, Y70F
# notes: human IgG1/kappa
# B25: HDKD (antibody, human IgG1, V domains shown)
# VH: B1 VH with V24A, V48L
# VL: B1 VL with I3V, V57I, Y70F
# notes: human IgG1/kappa
# B26: RHE E-DKA (antibody, human IgG1, V domains shown)
# VH: B1 VH with V24A, S49G, E108D
# VL: B1 VL with I3V, W46L, V57I, Y70F
# notes: human IgG1/kappa
# B27: HFKC (antibody, human IgG1, V domains shown)
# VH: B1 VH with V24A, F67L
# VL: B1 VL with W46L, V57I, Y70F
# notes: human IgG1/kappa
# B28: HEKG (antibody, human IgG1, V domains shown)
# VH: B1 VH with V24A, S49G
# VL: B1 VL with I3V, F35Y, W46L, V57I, Y70F
# notes: human IgG1/kappa
# B29: HEKB (antibody, human IgG1, V domains shown)
# VH: B1 VH with V24A, S49G
# VL: B1 VL
# notes: human IgG1/kappa
# B30: HFKE (antibody, human IgG1, V domains shown)
# VH: B1 VH with V24A, F67L
# VL: B1 VL with I3V, W46L, Y70F
# notes: human IgG1/kappa
# B31: HCKC (antibody, human IgG1, V domains shown)
# VH: B1 VH
# VL: B1 VL with W46L, V57I, Y70F
# notes: human IgG1/kappa
# B32: HGKFmut (antibody, human IgG1, V domains shown)
# VH: B1 VH with V24A, T68S
# VL: B1 VL with I3V, W46L, V57I, F95Y
# notes: human IgG1/kappa
# B33: HCKG (antibody, human IgG1, V domains shown)
# VH: B1 VH
# VL: B1 VL with I3V, F35Y, W46L, V57I, Y70F
# notes: human IgG1/kappa
# B34: HFKD (antibody, human IgG1, V domains shown)
# VH: B1 VH with V24A, F67L
# VL: B1 VL with I3V, V57I, Y70F
# notes: human IgG1/kappa
# B35: HGKG (antibody, human IgG1, V domains shown)
# VH: B1 VH with V24A, T68S
# VL: B1 VL with I3V, F35Y, W46L, V57I, Y70F
# notes: human IgG1/kappa; also called HGHG
# B36: HFKF (antibody, human IgG1, V domains shown)
# VH: B1 VH with V24A, F67L
# VL: B1 VL with I3V, W46L, V57I
# notes: human IgG1/kappa
# B37: HGKF (antibody, human IgG1, V domains shown)
# VH: B1 VH with V24A, T68S
# VL: B1 VL with I3V, W46L, V57I
# notes: human IgG1/kappa
# B38: HDKA (antibody, human IgG1, V domains shown)
# VH: B1 VH with V24A, V48L
# VL: B1 VL with I3V, W46L, V57I, Y70F
# notes: human IgG1/kappa
# B39: HDKF (antibody, human IgG1, V domains shown)
# VH: B1 VH with V24A, V48L
# VL: B1 VL with I3V, W46L, V57I
# notes: human IgG1/kappa
# B40: HFKB (antibody, human IgG1, V domains shown)
# VH: B1 VH with V24A, F67L
# VL: B1 VL
# notes: human IgG1/kappa
# B41: HCKFmut (antibody, human IgG1, V domains shown)
# VH: B1 VH
# VL: B1 VL with I3V, W46L, V57I, F95Y
# notes: human IgG1/kappa
# B42: HCKD (antibody, human IgG1, V domains shown)
# VH: B1 VH
# VL: B1 VL with I3V, V57I, Y70F
# notes: human IgG1/kappa
# B43: RHE E-DKF (antibody, human IgG1, V domains shown)
# VH: B1 VH with V24A, S49G, E108D
# VL: B1 VL with I3V, W46L, V57I
# notes: human IgG1/kappa
# B44: RHE S-G KFmut (antibody, V domains shown)
# VH: B1 VH with V24A, S49G, S106G
# VL: B1 VL with I3V, W46L, V57I, F95Y
# notes: human IgG1/kappa
# Target: T1, recombinant human Siglec-8 extracellular domain (ECD) (human, UniProt Q9NYZ4 17-363)
# T1 construct: extracellular domain; also called Siglec-8 ECD; full Siglec-8 ECD
# T1 sequence (Q9NYZ4 17-363): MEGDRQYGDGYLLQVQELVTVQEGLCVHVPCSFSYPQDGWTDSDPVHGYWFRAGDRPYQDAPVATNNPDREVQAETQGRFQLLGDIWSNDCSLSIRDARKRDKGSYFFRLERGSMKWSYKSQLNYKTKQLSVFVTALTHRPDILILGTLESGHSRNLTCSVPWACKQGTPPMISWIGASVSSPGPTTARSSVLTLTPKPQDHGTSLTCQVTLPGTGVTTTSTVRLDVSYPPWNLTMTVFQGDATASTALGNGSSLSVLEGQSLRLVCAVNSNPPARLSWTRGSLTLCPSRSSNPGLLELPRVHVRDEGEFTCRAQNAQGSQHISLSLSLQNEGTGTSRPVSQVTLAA
# Assay: ELISA, coated Siglec-8 ECD
# Description: Binding of recombinant human Siglec-8 extracellular domain (ECD) by chimeric 2E2 and chimeric 2C4 IgG1K antibodies was measured by ELISA. […] Three-fold serial dilutions of a chimeric antibody (ch2E2 or ch2C4) or mouse antibody (m2E2 or m2C4) in 0.2% BSA/TBS (starting concentration was 5000 ng/mL) was added to each coated well. The plate was incubated for 2 hours at room temperature and the wells were subsequently washed before addition of goat-anti-human Fc peroxidase conjugate (1:10000 dilution) or anti-mouse Fc peroxidase conjugate (1:30000 dilution) diluted in 0.2% BSA/TBS solution. The plate was incubated for 45 minutes at room temperature, followed by washing and addition of 30 μL K-blue HRP substrate (SkyBio Ltd) to each well. After incubation at room temperature for 15 minutes, the reaction was stopped by adding 10 μL of Red Stop solution (SkyBio Ltd) to each well. The optical density or the experimental samples was read at 650 nm using the ELISA reader PHERAStar FS (BMG Labtech).
# The fully humanized antibody heavy and light chains were combined and compared with the chimeric antibody to determine if replacing the 4 Å and canonical framework residues and interface residues was sufficient to successfully humanize 2E2. Expi293 cells were co-transfected with combinations of different humanized light chain vectors in association with different humanized heavy chain vectors. Siglec-8 antigen was used to measure antibody binding by ELISA as described in Example 1.
row,EC50,Binder
1,65 pM,B1
2,113 pM,B2
3,56 pM,B3
4,50 pM,B4
5,355 pM,B5
6,65 pM,B6
7,516 pM,B7
8,1400 pM,B8
9,69 pM and 65 pM,B9
10,59 pM and 70 pM,B10
11,65 pM,B11
12,50600 pM,B12
13,47 pM,B13
14,364 pM,B14
15,316 pM,B15
16,61 pM,B16
17,289 pM,B17
18,57 pM,B18
19,134 pM,B19
20,59 pM,B20
21,55 pM,B21
22,106 pM,B22

row,EC50,Binder
1,116 pM,B23
2,57 pM,B24
3,48 pM,B25
4,388 pM,B26
5,63 pM,B27
6,302 pM,B28
7,63 pM and 57 pM,B29
8,104 pM,B30
9,58 pM,B31
10,62 pM,B32
11,273 pM,B33
12,58 pM,B34
13,254 pM,B35
14,118 pM,B36
15,88 pM,B37
16,67 pM,B38
17,57 pM,B39
18,99 pM,B40
19,78 pM,B41
20,49 pM,B42
21,445 pM,B43
22,207000 pM,B44
